# Reference: the RNAGym collection of RNA variant scans (doi:10.1073/pnas.2313332121)
# B1: TPR t1 (parent)
# chain: GACCAAUCUGCCCUCAGAGCUCGAGAACAUCUUCGGAUGCAGAGGAGGCAGGCUUCGGUGGCGCGAUAGCGCCAACGUCCUCAACCUCCAAUGCAUCCCACCACAUGAUGAUGCCUGAAGAGCCUUGGUUUUUUG
# Variants of: B1
# Assay: polymerase ribozyme fitness, log enrichment relative to wild type (log ratio); higher = more active; in vitro selection for triplet polymerase activity
# Method in brief: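 Each subunit of a heterodimeric triplet polymerase ribozyme was mutagenized into a library by PCR, transcribed, and subjected to one round of in vitro selection, run in triplicate. Libraries were annealed with a biotinylated primer, the partner subunit and triplets, incubated frozen at −7 °C, and extended constructs were gel-excised, captured on streptavidin beads and recovered by RT-PCR. Input and output libraries were sequenced on Illumina, keeping genotypes with ≥10 input reads and ≥1 read per output. Fitness is log base 2 of genotype enrichment divided by wild-type enrichment, from inverse-variance-weighted replicate averages.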
row,Variant,polymerase ribozyme fitness (log ratio)
1,A27U G52A C73A A91C U112A,-4.52
2,A27G A90U U116C,-6.7
3,A27U A95C,-4.26
4,A27U G52C C88U,-3.31
5,A27U C49G G51A C80A C99U G120C U130A,-8.17
6,A27U C97U,-3.07
7,C28A C73A C94A A119U,-5.2
8,A27G C28U G47U G58C,-3.68
9,C28A C49U G69U G113A,-1.42
10,A27G G45A A83G U130G,-4.37
11,A27U C123A,-1.74
12,A27U A29G G122A,-3.63
13,A27U G36C G44C G122A U126G,-5.95
14,A27G C28U U116C U130C,-5.27
15,A27G C98U,-3.4
16,A27G C56A C104U,-2.14
17,A27U G35A C49U C88A A90G C98A U109A,-4.79
18,A27G A103U U112A U130C,-5.43
19,A27U A50G U133A,-2.6
20,C28A A50C C73A G113A,-4.23
21,A27G G61A,-1.92
22,A27U U116G,-5.63
23,A27U C40G G57U U112A,-3
24,A27G C56G C89U G110U,-3.06

row,Variant,polymerase ribozyme fitness (log ratio)
1,A27U A29G C72A,-2.36
2,A27U U59A,-3.1
3,A27G G120C,-0.195
4,A27G G120A,-1.1
5,A27U C72A C94A,-4.07
6,A27G G45U G71U U96G G120U,-4.73
7,A27U U54C G61U G107C U109C G110C,-7.69
8,A27U G47U C86U G110C,-6.45
9,A27U G48C C124G U126C G128A,-4.06
10,A27G G58A A75G,-2.58
11,A27U C73U U131G,-1.71
12,A27U U112C,-1.46
13,A27U A29C G47A C53G A121C,-3.53
14,A27G U33G G63C G120A C123U,-5.79
15,A27G C72A G93C G120U,-2.9
16,A27G A95U,-2.82
17,C28A C70A,-4.81
18,A27U U55G C56A G69C,-6.66
19,A27U G63C,-3.59
20,A27U G63A,-4.36
21,A27U G63U,-5.66
22,A27U C89U C124A,-1.39
23,A27G A121G,1.32
24,A27G C34A,-4.06

row,Variant,polymerase ribozyme fitness (log ratio)
1,A27G U38A C73U A83C,-3.53
2,A27G A100U G120U,-3.21
3,A27G G45A G58A G61A A91G,-5.18
4,A27G G69U A74U,-2.9
5,A27G A105U,-4.91
6,A27U C114U,-4.39
7,A27G G110U,-3.11
8,A27G G110A,-1.89
9,A27U A84C G120U U125C,-1.52
10,A27U G61C C97U U131A,-4.99
11,C28A A75G C86G C123U,-5.57
12,A27U C49U C79G C86U,-4.94
13,A27G U32A G36U G44A G63C C76A,-7.06
14,A27G C88U C115U,-4.85
15,A27U G36A A41C C56A G61A G120A,-5.6
16,A27G G51U G61A G127C,-6.98
17,A27U C79A,-3.85
18,A27U C79G,-4.46
19,A27U G51U C62A C70U C115G,-6.61
20,A27U C53A,-3.49
21,A27U C53U,-2.7
22,A27U C53G,-2.71
23,A27G C49G G61C G63U C89G G117C,-6.39
24,A27U U54A C115A,-3.07

row,Variant,polymerase ribozyme fitness (log ratio)
1,A27U G120U,-2.65
2,A27U G120A,-1.65
3,A27G U87C,-1.74
4,A27U C56A C70U U96A,-5.71
5,A27G U38A A83C,-2.58
6,A27G G51A G61C,-4
7,C28A C49U,-4.87
8,A27U G63A G69U U131C,-4.16
9,A27G C70U,-2.05
10,A27U C72A C82A U112C G122C,-2.28
11,A27U C56G G117U C124G,-4.92
12,A27U G47A U59A U106G U133G,-4.03
13,A27U G57U C73G U78C U96A A111U,-5.99
14,A27U G36C G135U,-5.51
15,A27U C72U A83U,-3.67
16,A27U G48C,-3.79
17,A27U G47U C124G,-1.62
18,A27U C104A,-4.18
19,A27U G44C C72U C104U,-4.18
20,A27G G47C A100U,-4.85
21,A27G G39A C53A C85A C89A G113C,-5.16
22,C28A A74C,-4.96
23,A27U G44U,-3.87
24,A27U C64U,-2.76

row,Variant,polymerase ribozyme fitness (log ratio)
1,A27G A100U,-3.23
2,A27G C62A,-2.85
3,A27U U54G C123U,-1.23
4,A27U G60C,-3.62
5,A27U A68G,-5.61
6,A27G G71A,-1.68
7,A27G C34U C72U C86A U112A U133C,-2.87
8,A27U U54G U116A C124A G127A,-3.59
9,C28A A68G A74U G93A C114G,-7.51
10,A27G C40U,-2.39
11,A27U C40G C82G,-5.92
12,A27U C76U G77C,-3.99
13,A27U G60A C62U G120C,-2.69
14,A27U C80A,-5.56
15,A27U C80U,-3.34
16,A27U C62U U125A,-3.89
17,C28A C64G A111U C115G,-6.15
18,A27G C28G,-4.25
19,A27U A37C U59C,-3.36
20,A27U A46U G61A C85U C94U,-3.53
21,A27G G60A,-1.17
22,A27U C40U C76G,-4.54
23,A27U A83U,-3.7
24,A27U G36U G60U,-4.13

row,Variant,polymerase ribozyme fitness (log ratio)
1,A27G C40G G107C C115U G120U U131A,-5.69
2,A27U U131C,-2.91
3,A27U C53A G71U C88A G117C,-6.86
4,C28A A74C G117U,-7.34
5,A27G G113U,-3.25
6,C28A C72U A100C G120A,-4.36
7,A27G C64U G77U C85A U130C,-4.3
8,A27G C102U A103G U112G,-7.77
9,A27U C70U,-3.44
10,A27U C70A,-4.74
11,A27U C70G,-6.31
12,A27U C40G G45U A119U,-5.54
13,A27G C64A C115G,-7.5
14,A27U C82U,-2.99
15,A27U A46G C72U G120A,-2.7
16,A27U C82G C102A C123A,-4.66
17,A27U C76A C79A,-4.71
18,C28A A43G G51U A90G G110A,-4.93
19,A27U A74U U87A,-2.97
20,A27G C70U U131A,-3.2
21,A27U C72A,-2.61
22,A27G C56U,-1.35
23,A27G G51U G58A U78C A84C,-5.35
24,A27G C34G A43C G45U C115A,-7.59

row,Variant,polymerase ribozyme fitness (log ratio)
1,A27U C64U U78C,-3.83
2,A27U G71C,-4.45
3,A27U U96A,-4.07
4,A27U C124A,-0.764
5,A27G G69C,-2.33
6,A27U U133C,-2.05
7,A27G U38A,-3.17
8,A27U C72A U96A,-4.21
9,A27U G47A C49U U96A A119U,-5.56
10,A27U U30C C76A C99G C102A A105U C115U,-6.7
11,A27U C76A G113A A119U,-6.73
12,A27G C102U,-3.53
13,A27G A83G G93A,-3
14,A27U G61A U87G,-2.42
15,A27U G117U,-4.76
16,A27U A41U,-4.42
17,A27U C34U G45U G69U,-5.7
18,A27U A37C,-2.87
19,A27U U87G G122A,-3.02
20,A27U C62A,-4.1
21,A27U G47C,-4.91
22,A27U G47A,-4.02
23,A27U G69U C101A,-2.96
